Paper PMC4618557

Molecular target: Vasna-Cd4d3+4-bio (zebrafish)
Test: SPR; BIAcore; Vasna-Cd4d3+4-bio immobilised on a streptavidin-coated sensor chip at high and low levels, Cd4d3+4-bio as reference; Islr2-Cd4d3+4-6xHis injected in serial dilutions; HBS-EP buffer, 28 °C; 20 μl/min for equilibrium, 100 μl/min for kinetics (7, 14, 28 μM); purification of the Vasna bait before capture not given

Kd: 12.4 µM | half-life: 0.16 s | koff: 4.3 s⁻¹
Substance: Islr2-Cd4d3+4-6xHis (domain or fragment)
